Results from the supplement of paper PMC7877785.
± gives the uncertainty stated by the source.

Test: self-splicing fitness, log relative to wild type (ln ratio); higher = more splicing; Tetrahymena group I intron in knt gene, E. coli kanamycin selection, DiMSum; sequences stand for … in CUCUCU…GGAGGGAAAAGUUAUCAGGCAUGCACCUGGUAGCUAGUCUUUAAACCAAUAGAUUGCAUCGGUUUAAAAGGCAAGACCGUCAAAUUGCGGGAAAGGGGUCAACAGCCGUUCAGUACCAAGUCUCAGGGGAAACUUUGAGAUGGCCUUGCAAAGGGUAUGGUAAUAAGCUGACGGACAUGGUCCUAACCACGCAGCCAAGUCCUAAGUCAACAGAUCUUCUGUUGAUAUGGAUGCAGUUCACAGACUAAAUGUCGGUCGGGGAAGAUGUAUUCUUCUCAUAAGAUAUAGUCGGACCUCUCCUUAAUGGGAGCUAGCGGAUGAAGUGAUGCAACACUGGAGCCGCUGGGAACUAAUUUGUAUGCGAAAGUAUAUUGAUUAGUUUUGGAGUACUCGUGGUCG
Outline: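 Library with all eight P1ex-region intron nucleotides randomised, intron inside the knt kanamycin-resistance gene on pET-22b(+), in E. coli BL21(DE3). Cells grew overnight at 37°C or 30°C on LB agar with or without 25 μg/mL kanamycin (plus 100 μg/mL carbenicillin, 50 μM IPTG, 0.2% rhamnose), in six replicate transformations. Pooled colonies were amplicon-sequenced on Illumina HiSeq 2500. DiMSum fitness is the error-weighted combination of wild-type-normalised replicate fold changes, kanamycin versus none.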

Sequence	self-splicing fitness (ln) (30 °C)	self-splicing fitness (ln) (37 °C)
CCGCAGCAAUAUUACGCCCC	-3.29 ± 0.36	-1.4 ± 0.45
CCGCAGCAAUAUUACGCCUC	-2.79 ± 0.12	-2.04 ± 0.14
CCGCAGCAAUAUUACGCGCU	-3.09 ± 0.21	-2.01 ± 0.23
CCGCAGCAAUAUUACGCUAC	-4.14 ± 0.28	-2.37 ± 0.23
CCGCAGCAAUAUUACGCUUG	-3 ± 0.12	-2.84 ± 0.16
CCGCAGCAAUAUUACGGACA	-4.06 ± 0.46	-2.57 ± 0.17
CCGCAGCAAUAUUACGGAGG	-3.01 ± 0.16	-1.81 ± 0.18
CCGCAGCAAUAUUACGGGUU	-3.79 ± 0.11	-2.74 ± 0.11
CCGCAGCAAUAUUACGGUCC	-3.73 ± 0.23	-1.99 ± 0.23
CCGCAGCAAUAUUACGGUCU	-4.37 ± 0.2	-3.65 ± 0.23
CCGCAGCAAUAUUACGUGGA	-3.51 ± 0.23	-2.43 ± 0.22
CCGCAGCAAUAUUACGUUCU	-3.87 ± 0.19	-3.16 ± 0.26
CCGCAGCAAUAUUACGUUGA	-3.59 ± 0.16	-3.41 ± 0.25
CCGGAGCAAUAUUACGAAGA	-3.63 ± 0.23	-1.97 ± 0.16
CCGGAGCAAUAUUACGAGGG	-2.13 ± 0.27	-1.47 ± 0.29
CCGGAGCAAUAUUACGAGUC	-3.15 ± 0.26	-1.85 ± 0.28
CCGGAGCAAUAUUACGAUGU	-1.72 ± 0.14	-0.726 ± 0.17
CCGGAGCAAUAUUACGAUUU	-2.51 ± 0.36	-2.26 ± 0.3
CCGGAGCAAUAUUACGCAUU	-2.9 ± 0.39	-1.81 ± 0.45
CCGGAGCAAUAUUACGCGCG	-2.44 ± 0.2	-0.558 ± 0.22
CCGGAGCAAUAUUACGCUAG	-3.07 ± 0.21	-2.33 ± 0.26
CCGGAGCAAUAUUACGCUAU	–	-2.1 ± 0.2
CCGGAGCAAUAUUACGCUGG	-1.99 ± 0.21	–
CCGGAGCAAUAUUACGGAGC	-3.73 ± 0.48	-2.55 ± 0.44
CCGGAGCAAUAUUACGGGCA	-3.1 ± 0.48	-2.4 ± 0.41

Sequence	self-splicing fitness (ln) (30 °C)	self-splicing fitness (ln) (37 °C)
CCGGAGCAAUAUUACGUAAG	-0.00724 ± 0.087	0.176 ± 0.13
CCGGAGCAAUAUUACGUACA	-3.36 ± 0.4	–
CCGGAGCAAUAUUACGUAGC	-2.74 ± 0.31	-2.04 ± 0.46
CCGGAGCAAUAUUACGUAGG	-3.55 ± 0.26	-2.66 ± 0.3
CCGGAGCAAUAUUACGUAGU	-4.17 ± 0.25	-3.22 ± 0.22
CCGGAGCAAUAUUACGUCCG	-3.03 ± 0.37	–
CCGGAGCAAUAUUACGUCGU	-3.43 ± 0.22	-1.51 ± 0.18
CCGGAGCAAUAUUACGUGGG	-3.39 ± 0.31	-2.78 ± 0.38
CCGGAGCAAUAUUACGUGUU	-3.46 ± 0.24	-2.01 ± 0.19
CCGGAGCAAUAUUACGUUAC	-3.75 ± 0.2	-1.67 ± 0.2
CCGGAGCAAUAUUACGUUGG	-3.57 ± 0.24	-2.47 ± 0.26
CCGGAGCAAUAUUACGUUUC	-2.4 ± 0.31	-2.74 ± 0.48
CCGUAGCAAUAUUACGACGA	-0.268 ± 0.11	-0.689 ± 0.1
CCGUAGCAAUAUUACGAGAU	-3.86 ± 0.32	-2.29 ± 0.3
CCGUAGCAAUAUUACGCACC	–	-2.21 ± 0.37
CCGUAGCAAUAUUACGCCAA	-3.21 ± 0.41	-2.77 ± 0.4
CCGUAGCAAUAUUACGCCAU	-3.26 ± 0.25	-2.77 ± 0.36
CCGUAGCAAUAUUACGCGAG	-3.82 ± 0.24	-2.76 ± 0.32
CCGUAGCAAUAUUACGCUAG	-3.02 ± 0.28	-2.14 ± 0.25
CCGUAGCAAUAUUACGCUUG	-1.48 ± 0.069	-0.347 ± 0.075
CCGUAGCAAUAUUACGGCCG	-1.05 ± 0.16	-0.466 ± 0.18
CCGUAGCAAUAUUACGGGGC	-2.28 ± 0.24	-2.31 ± 0.34
CCGUAGCAAUAUUACGGGUC	-2.96 ± 0.21	-2.55 ± 0.2
CCGUAGCAAUAUUACGGGUG	-3.59 ± 0.21	-2.11 ± 0.16
CCGUAGCAAUAUUACGGUGC	-2.96 ± 0.16	-1.93 ± 0.16

Sequence	self-splicing fitness (ln) (30 °C)	self-splicing fitness (ln) (37 °C)
CCGUAGCAAUAUUACGUAAU	-4.17 ± 0.26	-1.96 ± 0.26
CCGUAGCAAUAUUACGUAUU	-4.16 ± 0.28	-3.58 ± 0.39
CCGUAGCAAUAUUACGUCAA	–	-1.2 ± 0.27
CCGUAGCAAUAUUACGUCGC	-3.45 ± 0.41	-1.77 ± 0.26
CCGUAGCAAUAUUACGUGAA	-3.73 ± 0.18	-2.34 ± 0.18
CCGUAGCAAUAUUACGUGGG	-4.15 ± 0.2	-3.05 ± 0.17
CCUAAGCAAUAUUACGAAAU	-2.79 ± 0.18	-2.77 ± 0.29
CCUAAGCAAUAUUACGAACA	-3.01 ± 0.29	-1.96 ± 0.32
CCUAAGCAAUAUUACGAAGU	-2.62 ± 0.13	-1.21 ± 0.13
CCUAAGCAAUAUUACGACAC	-3.33 ± 0.44	-2.03 ± 0.29
CCUAAGCAAUAUUACGAGCG	-0.823 ± 0.097	-0.11 ± 0.11
CCUAAGCAAUAUUACGAUCC	-3.83 ± 0.29	–
CCUAAGCAAUAUUACGCGUU	-3.27 ± 0.15	-2.69 ± 0.16
CCUAAGCAAUAUUACGCUAA	–	-2.31 ± 0.27
CCUAAGCAAUAUUACGCUUC	-3.16 ± 0.28	–
CCUAAGCAAUAUUACGGGAA	-3.52 ± 0.22	-1.83 ± 0.2
CCUAAGCAAUAUUACGGGAU	-4.35 ± 0.22	-3.29 ± 0.21
CCUAAGCAAUAUUACGGGCU	-3.03 ± 0.33	-2.46 ± 0.33
CCUAAGCAAUAUUACGGUCG	-0.889 ± 0.065	-0.252 ± 0.086
CCUAAGCAAUAUUACGGUGA	-3.89 ± 0.25	-2.28 ± 0.16
CCUAAGCAAUAUUACGGUUU	-4.49 ± 0.34	-3.07 ± 0.34
CCUAAGCAAUAUUACGUAUG	-1.82 ± 0.082	-0.95 ± 0.087
CCUAAGCAAUAUUACGUGGG	-3.51 ± 0.16	-2.5 ± 0.15
CCUAAGCAAUAUUACGUUAG	-1.95 ± 0.11	-2.03 ± 0.11
CCUCAGCAAUAUUACGAAAA	-2.77 ± 0.22	-2.26 ± 0.33

Sequence	self-splicing fitness (ln) (30 °C)	self-splicing fitness (ln) (37 °C)
CCUCAGCAAUAUUACGAACU	-2.63 ± 0.37	-1.64 ± 0.38
CCUCAGCAAUAUUACGAAGG	-3.6 ± 0.34	-1.84 ± 0.4
CCUCAGCAAUAUUACGAAGU	-3.54 ± 0.17	-1.88 ± 0.15
CCUCAGCAAUAUUACGACGU	-3.17 ± 0.18	-2.68 ± 0.24
CCUCAGCAAUAUUACGACUC	-3.68 ± 0.43	–
CCUCAGCAAUAUUACGAGGA	-2.54 ± 0.29	-1.09 ± 0.14
CCUCAGCAAUAUUACGAUCG	-0.809 ± 0.1	-0.00907 ± 0.14
CCUCAGCAAUAUUACGCAGA	-3.39 ± 0.34	-2.27 ± 0.33
CCUCAGCAAUAUUACGCCUA	-2.6 ± 0.21	-1.6 ± 0.2
CCUCAGCAAUAUUACGCGUU	-3.88 ± 0.23	-2.96 ± 0.4
CCUCAGCAAUAUUACGCUAC	-1.66 ± 0.33	–
CCUCAGCAAUAUUACGCUCA	-2.6 ± 0.39	-1.74 ± 0.22
CCUCAGCAAUAUUACGGAUG	-0.811 ± 0.066	-0.682 ± 0.087
CCUCAGCAAUAUUACGGCCU	-4.16 ± 0.39	-1.59 ± 0.29
CCUCAGCAAUAUUACGGGAA	-2.4 ± 0.19	-3.35 ± 0.3
CCUCAGCAAUAUUACGGGUC	-2.5 ± 0.27	-2.56 ± 0.36
CCUCAGCAAUAUUACGGUCU	-3.73 ± 0.25	-2.56 ± 0.27
CCUCAGCAAUAUUACGUAAC	–	-2.13 ± 0.47
CCUCAGCAAUAUUACGUCGU	-3.24 ± 0.15	-2.82 ± 0.24
CCUCAGCAAUAUUACGUCUC	-3.73 ± 0.24	–
CCUCAGCAAUAUUACGUCUU	-3.91 ± 0.27	-2.55 ± 0.26
CCUCAGCAAUAUUACGUGCU	-3.84 ± 0.33	-2.62 ± 0.39
CCUCAGCAAUAUUACGUGGC	-3.94 ± 0.22	-3.01 ± 0.24
CCUGAGCAAUAUUACGACUU	-3.87 ± 0.27	-2.46 ± 0.24
